Measured values taken from the supplement of paper PMC9112550, “Optimization of the antimicrobial peptide Bac7 by deep mutational scanning” (BMC Biology, 2022).

Test system: Escherichia coli TOP10
Assay: shrunken log2 fold change of peptide-encoding DNA abundance (4.5 h post-induction vs induction); higher = less antimicrobial activity (less host growth inhibition)
Conditions: time post-induction: 4.5 h; library: site-saturation at positions 5, 18, 19, 20
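Also: peptides expressed intracellularly from a pBAD plasmid library in pooled LB shake-flask culture, induced with 0.3% L-arabinose, DNA abundance read by NGS, three biological replicates, DESeq2 with apeglm shrinkage.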

Row | Sequence | shrunken log2 fold change
1 | RRIRLRPPRLPRPRPRPDIAPRP | 0.024
2 | RRIRMRPPRLPRPRPRPHEEPRP | 0.053
3 | RRIRSRPPRLPRPRPRPCIEPRP | -0.21
4 | RRIRWRPPRLPRPRPRPVAGPRP | 0.524
5 | RRIRKRPPRLPRPRPRPQQKPRP | 0.206
6 | RRIRLRPPRLPRPRPRPSNAPRP | -0.204
7 | RRIRPRPPRLPRPRPRPIRMPRP | -0.039
8 | RRIRVRPPRLPRPRPRPCPGPRP | 0.00413
9 | RRIRFRPPRLPRPRPRPVGYPRP | -0.129
10 | RRIRQRPPRLPRPRPRPPSNPRP | -0.481
11 | RRIRGRPPRLPRPRPRPAAVPRP | 1.51
12 | RRIRARPPRLPRPRPRPPAQPRP | 1.02
13 | RRIRERPPRLPRPRPRPFATPRP | 0.119
14 | RRIRWRPPRLPRPRPRPYHWPRP | -0.236
15 | RRIRQRPPRLPRPRPRPWWLPRP | 0.27
16 | RRIRARPPRLPRPRPRPIEWPRP | 0.638
17 | RRIRSRPPRLPRPRPRPNNTPRP | -0.574
18 | RRIRQRPPRLPRPRPRPEYIPRP | -0.00306
19 | RRIRARPPRLPRPRPRPVCVPRP | 0.579
20 | RRIRHRPPRLPRPRPRPFAVPRP | -1.08
21 | RRIRVRPPRLPRPRPRPFTFPRP | -0.0282
22 | RRIRMRPPRLPRPRPRPVCSPRP | -0.0933
23 | RRIRNRPPRLPRPRPRPEMIPRP | -0.0601
24 | RRIRERPPRLPRPRPRPVHVPRP | -0.389
25 | RRIRVRPPRLPRPRPRPTGFPRP | 0.0174

Row | Sequence | shrunken log2 fold change
26 | RRIRHRPPRLPRPRPRPIATPRP | -0.0153
27 | RRIRMRPPRLPRPRPRPPQMPRP | 0.594
28 | RRIRARPPRLPRPRPRPKMHPRP | 0.364
29 | RRIRARPPRLPRPRPRPFLLPRP | -0.223
30 | RRIRMRPPRLPRPRPRPYYNPRP | -0.709
31 | RRIRFRPPRLPRPRPRPAMDPRP | -0.0614
32 | RRIRDRPPRLPRPRPRPFHFPRP | -0.208
33 | RRIRFRPPRLPRPRPRPKKRPRP | 0.3
34 | RRIRLRPPRLPRPRPRPFDMPRP | -0.205
35 | RRIRNRPPRLPRPRPRPTMHPRP | -0.159
36 | RRIRVRPPRLPRPRPRPKQTPRP | -0.0483
37 | RRIRWRPPRLPRPRPRPFQGPRP | -0.249
38 | RRIRPRPPRLPRPRPRPGHCPRP | 0.0859
39 | RRIRCRPPRLPRPRPRPADPPRP | -0.195
40 | RRIRQRPPRLPRPRPRPIELPRP | -0.293
41 | RRIRKRPPRLPRPRPRPHIHPRP | -0.239
42 | RRIRWRPPRLPRPRPRPAQPPRP | 0.236
43 | RRIRRRPPRLPRPRPRPHPAPRP | 0.583
44 | RRIRRRPPRLPRPRPRPYYTPRP | 1.46
45 | RRIRFRPPRLPRPRPRPAAGPRP | 0.333
46 | RRIRERPPRLPRPRPRPQGHPRP | -0.0972
47 | RRIRQRPPRLPRPRPRPAHEPRP | 0.185
48 | RRIRDRPPRLPRPRPRPPCAPRP | 0.371
49 | RRIRCRPPRLPRPRPRPMYWPRP | 0.0082
50 | RRIRSRPPRLPRPRPRPGCWPRP | 0.593

Row | Sequence | shrunken log2 fold change
51 | RRIRHRPPRLPRPRPRPIEYPRP | -0.129
52 | RRIRARPPRLPRPRPRPYIRPRP | -0.406
53 | RRIRRRPPRLPRPRPRPFYHPRP | 0.0115
54 | RRIRGRPPRLPRPRPRPVQCPRP | 0.102
55 | RRIRDRPPRLPRPRPRPIMKPRP | -0.195
56 | RRIRKRPPRLPRPRPRPFSYPRP | -0.324
57 | RRIRERPPRLPRPRPRPGSYPRP | -0.868
58 | RRIRGRPPRLPRPRPRPCEIPRP | 0.128
59 | RRIRFRPPRLPRPRPRPDAPPRP | 0.421
60 | RRIRHRPPRLPRPRPRPKTSPRP | -0.0692
61 | RRIRKRPPRLPRPRPRPGTLPRP | 0.0624
62 | RRIRCRPPRLPRPRPRPIAEPRP | 0.247
63 | RRIRYRPPRLPRPRPRPFRGPRP | -0.303
64 | RRIRLRPPRLPRPRPRPHYNPRP | -0.779
65 | RRIRFRPPRLPRPRPRPTLYPRP | -0.189
66 | RRIRMRPPRLPRPRPRPSAIPRP | 0.476
67 | RRIRWRPPRLPRPRPRPNHFPRP | -0.429
68 | RRIRARPPRLPRPRPRPAEIPRP | 0.233
69 | RRIRRRPPRLPRPRPRPCSHPRP | -0.18
70 | RRIRMRPPRLPRPRPRPEFFPRP | 0.277
71 | RRIRKRPPRLPRPRPRPGGGPRP | 0.976
72 | RRIRYRPPRLPRPRPRPGRMPRP | -0.642
73 | RRIRVRPPRLPRPRPRPTNKPRP | -0.254
74 | RRIRWRPPRLPRPRPRPFLGPRP | -0.552
75 | RRIRTRPPRLPRPRPRPCALPRP | -0.0236

Row | Sequence | shrunken log2 fold change
76 | RRIRQRPPRLPRPRPRPGRNPRP | -0.0272
77 | RRIRQRPPRLPRPRPRPTVKPRP | -0.096
78 | RRIRKRPPRLPRPRPRPAHSPRP | 0.0695
79 | RRIRTRPPRLPRPRPRPLAYPRP | -0.982
80 | RRIRERPPRLPRPRPRPPMYPRP | -0.458
81 | RRIRKRPPRLPRPRPRPMHDPRP | 0.321
82 | RRIRRRPPRLPRPRPRPWEDPRP | 0.0594
83 | RRIRKRPPRLPRPRPRPLMNPRP | 0.158
84 | RRIRVRPPRLPRPRPRPPGLPRP | 0.373
85 | RRIRKRPPRLPRPRPRPAAKPRP | 0.0103
86 | RRIRNRPPRLPRPRPRPQQGPRP | -0.159
87 | RRIRLRPPRLPRPRPRPTVEPRP | 0.114
88 | RRIRDRPPRLPRPRPRPTFVPRP | 0.177
89 | RRIRTRPPRLPRPRPRPFIHPRP | -0.0383
90 | RRIRSRPPRLPRPRPRPHTCPRP | -0.215
91 | RRIRVRPPRLPRPRPRPRIQPRP | -0.196
92 | RRIRMRPPRLPRPRPRPTQNPRP | 1.18
93 | RRIRGRPPRLPRPRPRPSQVPRP | 0.235
94 | RRIRTRPPRLPRPRPRPLCDPRP | -0.714
95 | RRIRYRPPRLPRPRPRPHPMPRP | -0.191
96 | RRIRKRPPRLPRPRPRPAHLPRP | -0.00667
97 | RRIRGRPPRLPRPRPRPCCVPRP | 0.751
98 | RRIRIRPPRLPRPRPRPIGEPRP | 0.0399
99 | RRIRMRPPRLPRPRPRPYLKPRP | -0.00107
100 | RRIRIRPPRLPRPRPRPGVPPRP | -0.0807

Row | Sequence | shrunken log2 fold change
101 | RRIRNRPPRLPRPRPRPYDHPRP | -0.219
102 | RRIRKRPPRLPRPRPRPGDPPRP | 1.21
103 | RRIRVRPPRLPRPRPRPMGSPRP | -0.000992
104 | RRIRARPPRLPRPRPRPAKMPRP | 0.463
105 | RRIRCRPPRLPRPRPRPEHWPRP | 0.118
106 | RRIRTRPPRLPRPRPRPAFPPRP | 0.0262
107 | RRIRRRPPRLPRPRPRPTPRPRP | 2.37
108 | RRIRHRPPRLPRPRPRPWRSPRP | -0.0818
109 | RRIRFRPPRLPRPRPRPPVMPRP | 0.0132
110 | RRIRERPPRLPRPRPRPGDHPRP | -0.0518
111 | RRIRTRPPRLPRPRPRPNTCPRP | -0.395
112 | RRIRFRPPRLPRPRPRPQPSPRP | 0.279
113 | RRIRRRPPRLPRPRPRPKCSPRP | 0.504
114 | RRIRQRPPRLPRPRPRPSFFPRP | -0.287
115 | RRIRFRPPRLPRPRPRPNKFPRP | -0.783
116 | RRIRQRPPRLPRPRPRPEPQPRP | 0.00762
117 | RRIRSRPPRLPRPRPRPMVAPRP | 0.0774
118 | RRIRRRPPRLPRPRPRPEEQPRP | 0.231
119 | RRIRKRPPRLPRPRPRPWDGPRP | -0.0231
120 | RRIRKRPPRLPRPRPRPGQNPRP | 0.0264
121 | RRIRWRPPRLPRPRPRPKELPRP | 0.501
122 | RRIRCRPPRLPRPRPRPTKSPRP | -0.0425
123 | RRIRERPPRLPRPRPRPWCYPRP | -0.947
124 | RRIRWRPPRLPRPRPRPRCHPRP | 0.33
125 | RRIRNRPPRLPRPRPRPWIHPRP | 0.0731
